16 substances from patent publication US20130122591 can be followed below.

Some test systems named below: ZFN 29250 (engineered); ZFN 29223 (engineered); ZFN 29216 (engineered); ZFN 29251 (engineered); ZFN 30179 (engineered).
What all share (experiment): cell_activity
In series [1] the test system is TALEN 101276 (engineered).
Series [2] deals with TALEN 101267 (engineered). Particulars: pair with 101270, K562, 1600 ng, day 3.
Series [3] relates to TALEN 101286 (engineered). Particulars: pair with 101284, K562, 1600 ng, day 3.
Series [4] relates to TALEN 101270 (engineered). The note with it: pair with 101267, K562, 1600 ng, day 3.
Series [5] deals with TALEN 101288 (engineered).
For series [6], the system named is TALEN 101278 (engineered).
In series [7] the test system is TALEN 101271 (engineered). The note with it: pair with 101272, K562, 1600 ng, day 3.
For series [8], the system named is TALEN 101272 (engineered). The note with it: pair with 101271, K562, 1600 ng, day 3.
Series [9] relates to TALEN 101284 (engineered).
The subject of series [10] is TALEN 101282 (engineered). The note with it: pair with 101288, K562, 1600 ng, day 3.

“AACTTTTGTTAAATTCCTGATTTTATTTCTGTAGGACTGAGCGGCTTGCTCGAGATGTG (double strand) [canine HPRT region (29250/101276 site)]”: the activity amounted to 9.2 % NHEJ in the series on ZFN 29250 (engineered) (pair with 30179, canine D17, 100 ng); 2.5 % NHEJ in series [1] (pair with 101278, canine D17, 200 ng, 0 at 100 and 400 ng).
For “AAGCACTGAATAGAAATAGTGATAGATC (double strand) [29223 site]”, in the series on ZFN 29223 (engineered) (pair with 29216, rhesus LLC-MK2, printed as 29233), the activity came to 2.7 % NHEJ.
Consider “ATCTCGAGCAAGACGTTCAGTCCTACAG (double strand) [29250 site]”, for which the activity in the series on ZFN 29250 (engineered) (pair with 29251, K562, 800 ng, day 3) was found to be 69.2 % NHEJ; with ZFN 29250 (engineered) (pair with 29251, rhesus LLC-MK2 (sites stated conserved)) it was 8.2 % NHEJ.
Regarding “ATGTAATCCAGCAGGTCAGCAAAGAATT (double strand) [29216 site]”, in the series on ZFN 29216 (engineered) (pair with 29223 (printed 29233), rhesus LLC-MK2), the activity was determined as 2.7 % NHEJ.
Regarding “TCCGTTATGGCGAC (double strand) [101267 site]”, the activity in series [2] was 31.8 % NHEJ.
Substance “TCTATCACTATTTCTAT (double strand) [101286 site]” had an activity in [3] of 35.3 % NHEJ.
For “TGATGAAGGAGATGGGAGGCCATCACAT (double strand) [29251/30179 site]”, the activity worked out at 69.2 % NHEJ in the series with ZFN 29251 (engineered) (pair with 29250, K562, 800 ng, day 3); 8.2 % NHEJ in the series with ZFN 29251 (engineered) (pair with 29250, rhesus LLC-MK2 (sites stated conserved)); 0 % NHEJ in the series on ZFN 30179 (engineered) (pair with 29250, rhesus LLC-MK2).
With “TGCTCACCACGAC (double strand) [101270 site]”, the activity in series [4] worked out at 31.8 % NHEJ.
For the substance “TGGATCTATCACTATTT (double strand) [101288 site]”, the activity in series [5] (pair with 101284, K562, 1600 ng, day 3) worked out at 62.2 % NHEJ; in [5] (pair with 101284, rhesus LLC-MK2), 8.7 % NHEJ.
As to “TGGCCTCCCATCTCCT (double strand) [101278 site]”, the activity in series [6] (pair with 101276, K562, 1600 ng, day 3) came to 35.3 % NHEJ; in series [6] (pair with 101276, rhesus LLC-MK2) it was 7.6 % NHEJ.
On to “TGGCGTCGTGGTGAGC (double strand) [101271 site]”, for which, in series [7], the activity came out at 19.1 % NHEJ.
On to “TGGGCCTGAACCGGCC (double strand) [101272 site]”, for which the activity in series [8] was determined as 19.1 % NHEJ.
With “TGTAGGACTGAACGTCTT (double strand) [101276 site]”, the activity in series [1] (pair with 101278, K562, 1600 ng, day 3) worked out at 35.3 % NHEJ; in [1] (pair with 101278, rhesus LLC-MK2), 7.6 % NHEJ.
Turning to “TTGCTGACCTGCTGGATT (double strand) [101284 site]”, the activity in series [9] (pair with 101288, K562, 1600 ng, day 3) stood at 62.2 % NHEJ; in series [9] (pair with 101288, rhesus LLC-MK2), 8.7 % NHEJ.
On to “TTTGCTGACCTGCTGGAT (double strand) [101282 site]”, for which the activity in [10] stood at 46.2 % NHEJ.
On to canine HPRT locus, other sites, for which the activity in [5] (pair with 101284, canine D17, 100 ng) turned out to be 25.1 % NHEJ; in series [9] (pair with 101288, canine D17, 100 ng), 25.1 % NHEJ; in series [6] (pair with 101276, canine D17, 200 ng, 0 at 100 and 400 ng) it was 2.5 % NHEJ; in the series on ZFN 29251 (engineered) (pair with 29250, canine D17, 200 ng, 0 at 100 and 400 ng), 2.8 % NHEJ; in the series with ZFN 29223 (engineered) (pair with 29216, canine D17) it was 0 % NHEJ; in the series on ZFN 29216 (engineered) (pair with 29223, canine D17), 0 % NHEJ. The activity in the series with ZFN 30179 (engineered) (pair with 29250, canine D17, 100 ng) is 9.2 % NHEJ.
